Assay results: patent US20220242953A1 (JIANGSU HENGRUI MEDICINE, published 2022)

B1: bispecific antibody 155 (AFF3-5) (bispecific antibody)
chain 1: not shown
chain 2: QTVVTQEPSFSVSPGGTVTLTCGLSSGSVSTSHYPSWYQQTPGQAPRMLIYNTNTRSSGVPDRFSGSILGNKAALTITGAQADDESDYYCAIHVDRDIWVFGGGTKLTVLGGGGSGGGGSGGGGSQVQLVQSGGGVVQPGTSLRLSCAASGFIFSSSAMHWVRQAPGKGLEWVAVISYDGSNKYYVDSVKGRFTISRDNSKNTLYLQMNSLRAEDTAVYYCARSARLYASFDYWGQGALVTVSSGGGDKTHTCPPCPAPEAAGGPSVFLFPPKPKDTLMISRTPEVTCVVVDVSHEDPEVKFNWYVDGVEVHNAKTKPREEQYNSTYRVVSVLTVLHQDWLNGKEYKCKVSNKALPAPIEKTISKAKGQPREPQVCTLPPSREEMTKNQVSLSCAVKGFYPSDIAVEWESNGQPENNYKTTPPVLDSDGSFFLVSKLTVDKSRWQQGNVFSCSVMHEALHNHYTQKSLSLSPGK
notes: B7H3 bivalent CD3-B7H3 bispecific antibody, CD3 VH HRH-5
B2: bispecific antibody 156 (AFF3-6) (bispecific antibody)
chain 1: not shown
chain 2: B1 chain 2
notes: B7H3 bivalent CD3-B7H3 bispecific antibody, CD3 VH HRH-6
B3: bispecific antibody 118 (AFF 6-3) (bispecific antibody)
chain 1: not shown
chain 2: B1 chain 2
notes: B7H3 bivalent CD3-B7H3 bispecific antibody, CD3 VH HRH-3, CD3 scFv at the N-terminus
B4: bispecific antibody 127 (AFF3-3) (bispecific antibody)
chain 1: not shown
chain 2: B1 chain 2
notes: B7H3 bivalent CD3-B7H3 bispecific antibody, CD3 VH HRH-3
B5: bispecific antibody 132 (AFF3-3SS) (bispecific antibody)
chain 1: not shown
chain 2: B1 chain 2
B6: MGD009 (positive control bispecific antibody, three chains) (bispecific antibody)
chain 1: DIQLTQSPSFLSASVGDRVTITCKASQNVDTNVAWYQQKPGKAPKALIYSASYRYSGVPSRFSGSGSGTDFTLTISSLQPEDFATYYCQQYNNYPFTFGQGTKLEIKGGGSGGGGEVQLVESGGGLVQPGGSLRLSCAASGFTFSTYAMNWVRQAPGKGLEWVGRIRSKYNNYATYYADSVKDRFTISRDDSKNSLYLQMNSLKTEDTAVYYCVRHGNFGNSYVSWFAYWGQGTLVTVSSGGCGGGEVAALEKEVAALEKEVAALEKEVAALEKGGGDKTHTCPPCPAPEAAGGPSVFLFPPKPKDTLMISRTPEVTCVVVDVSHEDPEVKFNWYVDGVEVHNAKTKPREEQYNSTYRVVSVLTVLHQDWLNGKEYKCKVSNKALPAPIEKTISKAKGQPREPQVYTLPPSREEMTKNQVSLWCLVKGFYPSDIAVEWESNGQPENNYKTTPPVLDSDGSFFLYSKLTVDKSRWQQGNVFSCSVMHEALHNHYTQKSLSLSPGK
chain 2: QAVVTQEPSLTVSPGGTVTLTCRSSTGAVTTSNYANWVQQKPGQAPRGLIGGTNKRAPWTPARFSGSLLGGKAALTITGAQAEDEADYYCALWYSNLWVFGGGTKLTVLGGGGSGGGGEVQLVESGGGLVQPGGSLRLSCAASGFTFSSFGMHWVRQAPGKGLEWVAYISSDSSAIYYADTVKGRFTISRDNAKNSLYLQMNSLRDEDTAVYYCGRGRENIYYGSRLDYWGQGTTVTVSSGGCGGGKVAALKEKVAALKEKVAALKEKVAALKE
chain 3: not shown
notes: B7H3 monovalent B7H3xCD3 DART-Fc

target: T1, Human CD3 antigen for detection (SinoBiological cat #CT038-H2508H); human CD3 epsilon-His and human CD3 … (human, UniProt P07766 23-126; P04234 22-105); experiment: Biacore T200 SPR, bispecific antibody captured, CD3 antigen as analyte
T1 construct: Bought antigen
T1 sequence (P07766 other isoform, or with tags, fused parts or gaps H2508H H2508H, chain 1 of 2): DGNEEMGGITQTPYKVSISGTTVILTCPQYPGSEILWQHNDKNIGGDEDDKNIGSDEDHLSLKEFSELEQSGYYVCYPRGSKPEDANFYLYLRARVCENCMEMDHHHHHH
T1 sequence (P04234 other isoform, or with tags, fused parts or gaps H2508H H2508H, chain 2 of 2): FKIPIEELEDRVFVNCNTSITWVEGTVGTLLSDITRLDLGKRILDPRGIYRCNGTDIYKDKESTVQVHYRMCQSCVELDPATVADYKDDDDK
Experimental: (§1) The detection of antibody affinity to B7H3 and CD3 was performed in the form of capture antibody. BsAb was captured by CM5 biosensor chip (Cat. #BR-1005-30, GE) or Protein A (Cat. #29127556, GE) biosensor chip coupled with Anti-Human IgG Antibody (Cat. #BR-1008-39, Lot. #10260416, GE), and then each antigen flowed through the surface of the chip. The reaction signals were detected in real time with the Biacore T200 instrument to obtain the binding and dissociation curves. After the dissociation of each experimental cycle was completed, the chip was washed and regenerated with regeneration buffer Glycine1.5 (Cat #BR100354, GE) or 3 M MgCl₂ (from Human antibody capture kit, Cat. #BR100839, GE). The data were fitted with the (1:1) Langmuir model using GE Biacore T200 Evaluation version 3.0 software, and the affinity values were obtained.

Binder	binding result
B1	no binding
B2	no binding

target: T2, human B7H3 on the cell surface (A498, CT26/hB7H3, U87, Detroit562 cells) (human, UniProt Q5ZPR3 29-534); experiment: FACS on CT26/hB7H3 cells over-expressing human B7H3, APC anti-human IgG Fc detection, geometric mean fluorescence
T2 construct: Endogenous on A498, U87 and Detroit562 tumor cells, over-expressed on CT26/hB7H3
T2 sequence: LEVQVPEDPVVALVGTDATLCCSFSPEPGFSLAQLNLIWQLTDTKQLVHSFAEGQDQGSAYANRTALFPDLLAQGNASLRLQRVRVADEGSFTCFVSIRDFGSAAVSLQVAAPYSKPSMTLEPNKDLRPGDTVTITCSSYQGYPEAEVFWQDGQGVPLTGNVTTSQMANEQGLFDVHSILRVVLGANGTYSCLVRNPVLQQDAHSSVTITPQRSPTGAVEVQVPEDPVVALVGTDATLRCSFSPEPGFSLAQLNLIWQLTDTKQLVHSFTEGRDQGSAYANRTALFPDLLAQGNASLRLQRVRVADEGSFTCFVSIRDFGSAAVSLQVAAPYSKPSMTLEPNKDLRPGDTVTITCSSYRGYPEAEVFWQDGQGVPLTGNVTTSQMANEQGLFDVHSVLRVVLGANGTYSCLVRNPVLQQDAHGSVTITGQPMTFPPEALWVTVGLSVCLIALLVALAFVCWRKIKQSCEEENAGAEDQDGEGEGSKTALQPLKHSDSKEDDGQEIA
Experimental: (§2) The ability of bispecific antibodies to bind to cell surface antigens was detected by FACS method.
(§3) FACS buffer (98% PBS, 2% FBS) was added into a 96-well U-shaped bottom plate (corning, 3795) to resuspend the cells, the serially diluted antibodies were added, incubated at 4° C. for 1 hour, and the plate was washed with FACS buffer twice. Then APC anti-human IgG Fc Antibody (biolegend, Cat #409306, dilution at 1:50) was added into each well, incubated at 4° C. for 30 minutes, washed twice, the cells were resuspended in FACS buffer, and finally the fluorescence signal values were read by FACS CantoII (BD).

Binder	EC50 (read off the curve) [nM]
B3	~1
B4	~2
B5	~2
B6	~10

target: T1, Human CD3 antigen for detection …; experiment: Biacore T200 SPR, bispecific antibody captured, CD3 antigen as analyte, 1:1 Langmuir fit
Experimental: as §1

Binder	Kd [nM]
B4	97.2

target: T2, human B7H3 on the cell surface (A498, …); experiment: FACS on A498 cells expressing human B7H3, APC anti-human IgG Fc detection, geometric mean fluorescence
Experimental: as §2, §3

Binder	EC50 (read off the curve) [nM]
B4	~40
B5	~30

target: T3, Monkey CD3 antigen for detection (Acro biosystem cat #CDD-C52W4); monkey CD3 epsilon-His and monkey CD3 … (monkey (cyno), UniProt Q95LI5 22-117; Q95LI8 22-105); experiment: Biacore T200 SPR, bispecific antibody captured, antigen as analyte, 1:1 Langmuir fit
T3 construct: Bought antigen
T3 sequence (Q95LI5 other isoform, or with tags, fused parts or gaps mutant, chain 1 of 2): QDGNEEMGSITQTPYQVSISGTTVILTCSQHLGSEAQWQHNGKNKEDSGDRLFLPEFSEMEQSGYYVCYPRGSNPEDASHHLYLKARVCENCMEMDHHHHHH
T3 sequence (Q95LI8 other isoform, or with tags, fused parts or gaps mutant, chain 2 of 2): as the sequence (P04234 other isoform, or with tags, fused parts or gaps H2508H H2508H, chain 2 of 2) above, with I5V, N15K, I20V, S32T, D33N, I34N, T64A, S74N, V83L counted along it
Experimental: as §1

Binder	Kd [nM]
B3	1.59
B4	1.24
B5	0.813
B6	4.94

Target: T4, Monkey B7H3 antigen for detection (SinoBiological cat #90806-C08H) (monkey (cyno))
T4 construct: Bought antigen; also called monkey (cyno) B7H3
T4 chain: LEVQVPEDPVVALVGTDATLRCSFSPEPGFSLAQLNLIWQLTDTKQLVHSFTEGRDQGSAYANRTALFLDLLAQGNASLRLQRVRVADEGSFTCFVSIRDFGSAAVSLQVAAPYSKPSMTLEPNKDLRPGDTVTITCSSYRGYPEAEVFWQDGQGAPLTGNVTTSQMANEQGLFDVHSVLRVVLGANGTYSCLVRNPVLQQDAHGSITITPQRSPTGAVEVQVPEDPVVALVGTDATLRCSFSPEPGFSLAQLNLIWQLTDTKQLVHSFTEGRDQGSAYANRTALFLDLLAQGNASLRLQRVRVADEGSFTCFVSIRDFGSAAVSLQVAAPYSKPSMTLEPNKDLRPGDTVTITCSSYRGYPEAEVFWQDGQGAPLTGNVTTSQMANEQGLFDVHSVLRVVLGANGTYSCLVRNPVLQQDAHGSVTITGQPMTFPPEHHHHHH
Experiment: as above
Experimental: as §1

Binder	Kd [nM]
B3	7.31
B4	5.61
B5	6.9
B6	2.65

target: T5, Human B7H3 antigen for detection (SinoBiological cat #11188-H08H) (human, UniProt Q5ZPR3 29-461); experiment: as above
T5 construct: Bought antigen
T5 sequence: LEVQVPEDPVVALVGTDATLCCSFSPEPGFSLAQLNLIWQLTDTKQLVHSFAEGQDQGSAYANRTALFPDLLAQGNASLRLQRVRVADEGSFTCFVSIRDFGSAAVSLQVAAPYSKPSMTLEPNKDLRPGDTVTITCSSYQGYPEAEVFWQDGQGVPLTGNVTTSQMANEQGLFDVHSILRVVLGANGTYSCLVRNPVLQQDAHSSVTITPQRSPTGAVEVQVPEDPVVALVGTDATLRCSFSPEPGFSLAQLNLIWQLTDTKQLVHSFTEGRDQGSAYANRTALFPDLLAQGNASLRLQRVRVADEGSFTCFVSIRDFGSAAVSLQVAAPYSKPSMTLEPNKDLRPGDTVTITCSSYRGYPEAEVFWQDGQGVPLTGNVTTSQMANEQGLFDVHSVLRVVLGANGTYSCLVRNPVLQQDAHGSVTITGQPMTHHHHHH
Experimental: as §1

Binder	Kd [nM]
B3	5.33
B4	4.29
B5	5.35
B6	1.96

target: T1, Human CD3 antigen for detection …; experiment: as above
Experimental: as §1

Binder	Kd [nM]
B3	66.1
B4	84.7
B5	85.3
B6	78.1

target: human CD3 on the cell surface (Jurkat recombinant cells; T cells of PBMC) (human, UniProt P07766 23-207; P04234 22-171); experiment: FACS on Jurkat recombinant cells expressing CD3, APC anti-human IgG Fc detection, geometric mean fluorescence
Sequence (P07766 23-207, chain 1 of 2): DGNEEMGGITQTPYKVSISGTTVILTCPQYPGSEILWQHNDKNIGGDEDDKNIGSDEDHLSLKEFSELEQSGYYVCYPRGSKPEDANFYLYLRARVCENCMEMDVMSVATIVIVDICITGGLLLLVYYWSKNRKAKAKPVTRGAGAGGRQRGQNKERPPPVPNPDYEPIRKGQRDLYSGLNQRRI
Sequence (P04234 22-171, chain 2 of 2): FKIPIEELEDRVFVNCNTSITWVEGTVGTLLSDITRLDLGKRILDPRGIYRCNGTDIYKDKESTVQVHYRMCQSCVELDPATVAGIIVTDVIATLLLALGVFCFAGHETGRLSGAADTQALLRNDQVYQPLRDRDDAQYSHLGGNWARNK
Experimental: as §2, §3

Binder	EC50 (read off the curve) [nM]
B3	~100
B5	~300
B6	~100

target: T2, human B7H3 on the cell surface (A498, …); experiment: cell-based or functional assay

Binder	Emax (%), PBMC-mediated killing of A498 cells (B7H3 high) [%]	Emax (%), PBMC-mediated killing of Detroit562 cells (B7H3 low) [%]	Emax (%), PBMC-mediated killing of U87 cells (B7H3 intermediate) [%]	IC50 (nM), PBMC-mediated killing of A498 cells (B7H3 high) [nM]	IC50 (nM), PBMC-mediated killing of Detroit562 cells (B7H3 low) [nM]	IC50 (nM), PBMC-mediated killing of U87 cells (B7H3 intermediate) [nM]
B3	65.9	39.2	67.2	0.34	14.5	2.4
B4	67.5	26.5	69.5	2.4	15.8	8.2
B5	66.4	15.2	67.6	2.94	15.7	11.9
